Test system: MS2 coat protein
Test: apparent KD of MS2 coat protein; designed switch direction (-1 OFF switch, 1 ON switch): 1; higher = weaker reporter binding
In short: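 Designed RNA switches sharing common flanks were transcribed on Illumina chips by stalled E. coli RNA polymerase. They were titrated with SNAP-549-labelled MS2 coat protein, from 0.7 or 1.5 nM doubling to 3 µM, in Tris-HCl pH 7.5 buffer with KCl, MgCl2, BSA, DTT, tRNA and Tween-20. Titrations ran without input, with 200 uM small-molecule ligand, or with an oligonucleotide input. The apparent KD of each design is the median over its clusters, after curve-fitting of normalised cluster fluorescence.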

[1] = Eterna round: R95, input ligand: FMN 200 uM
[2] = Eterna round: R95, input ligand: microRNA oligo, concentration not stated
[3] = Eterna round: R95, input ligand: none
[4] = input ligand: microRNA oligo, concentration not stated

| Sequence | apparent KD of MS2 coat protein [1] | apparent KD of MS2 coat protein [2] | apparent KD of MS2 coat protein [3] | apparent KD of MS2 coat protein [4] | apparent KD of MS2 coat protein (input ligand: FMN 200 uM) | apparent KD of MS2 coat protein (input ligand: none) |
| --- | --- | --- | --- | --- | --- | --- |
| UCUUGGUUUUUGCUCGUUUUUUGUGUUGAACAUGAGGAUCACCCAUGUAUUGUACGGUCCAAUUUGAUAGUGGUCCG [JMF 28] (puzzle: Sensor for hsa-mir-208a) | 25.5 nM | 14.9 nM | 25.7 nM | – | – | – |
| AUACAUGAGGAUCACCCAUGUAAUUAAUUAACUAGUAAGAUCUAGGAUAUCAGCUCGUUUAGAGCUGAGAAGGAGAUCACAUGU [SSNG3/21-A3] (Eterna round: R96, puzzle: Same State NG 3) | – | – | – | 28.8 nM | – | – |
| GUGGUCAGACAUGAGGAUCACCCAUGUGGAAUAAAUAAGGUCAAGGAUAUUGAAUAUAGGAUAUACAAGAAGGUGAGGUUGGUG (Eterna round: R96, puzzle: Same State NG 3) | – | – | – | 94.9 nM | 140 nM | 115 nM |
| UUUAGUUGCGGGCAGGAUAUGUAUUAAAAUACAUGAGGAUCACCCAUGUGAGACCGAAAAGGUCUACAGAAGGGCCAAUCGCGAC [Laonerce - 20] (puzzle: Same State 2) | 16.1 nM | 66 nM | 79.5 nM | – | – | – |
| AGUCCAGCCAGAGCUGGACAAAAGCAUGUACAUGAGGAUCACCCAUGUUCAUGUACAAGCUUUUUGCAAGUCAAAAU [Mat - hsa-mir-208a - Mod of JL - 83] (Eterna round: R96, puzzle: Sensor for hsa-mir-208a) | – | – | – | 16 nM | 578 nM | 592 nM |
| UGCUUCGUGUAAGGAUAUGCAGCCGUUUCGGCUGCAGAAGGUACUAUAAUACAUGAGGAUCACCCAUGUCUCUCGCUUUGCGGG [salish99_SSng1_r04_304] (Eterna round: R96, puzzle: Same State NG 1) | – | – | – | 43.4 nM | – | – |
| UGGCUCAGACGAGGAUAUAUGUGGUCACAUGAGGAUCACCCAUGUCUCGAGCUUCGGCUCGAGGCAUAGAAGGUGUCUGAGCCA [SSNG2/5-C2] (Eterna round: R96, puzzle: Same State NG 2) | – | – | – | 16 nM | 227 nM | 33.9 nM |
| AGUCCAGCCUGAGCUGGACAAAAGCAUGUACAUGAGGAUCACCCAUGUUCAUGUACAAGCUUUUUGCUCGAAUUAAA [Mat - hsa-mir-208a - Mod of JL - 53] (puzzle: Sensor for hsa-mir-208a) | 558 nM | 15.4 nM | 822 nM | – | – | – |
| GAGGGACAGACCAACAUGAGGAUCACCCAUGUCCUCGCAGUUCAGGAUAUCCGGAGGUAGACGAAGGAGAAGGGAAGGUGAACC [AK SSNG3-V2-36] (Eterna round: R96, puzzle: Same State NG 3) | – | – | – | 382 nM | 266 nM | 207 nM |
| ACUUAGUACAAUUUAGAUCUACAUGAGGAUCACCCAUGUACUGAGGAUAUCAGCUCGAAUAGAGCUGAGAAGGCAGAAGUACUU [SSNG3/8-A1] (Eterna round: R96, puzzle: Same State NG 3) | – | – | – | 192 nM | – | – |
| AGGGAGGAAGCUGAGGAUAUCGUAGGGAGGACAUGAGGAUCACCCAUGUGUAUAGAAUUGGAGGACGAGAAGGCAGAGGAGUGGG [JR_SS2_Sub051] (puzzle: Same State 2) | 56.6 nM | 58.5 nM | 58.2 nM | – | – | – |
| GGAAUAUUCACAGGAUAUGAGUUGUAAAGUGGAUCAGAAGGGUGGGUGUUUUGCACGGUGUGUUACAUGAGGAUCACCCAUGUU [SameState NG1 #23] (Eterna round: R96, puzzle: Same State NG 1) | – | – | – | 241 nM | 82.4 nM | 418 nM |
| GAUAAACAUGAGGAUCACCCAUGUAAUAAUAUGGGAGGAUAUCAGAAUGUAUGUAUGUAAUGAGAAGGCCUAAAUG [Mat - Same State 1 - Mod of Eli - D73] (puzzle: Same State 1) | 104 nM | 425 nM | 309 nM | – | – | – |
| GUACUCAUGUAAGGAUAUGCAGCCGUUUCGGCUGCAGAAGGUACUAUAAUACAUGAGGAUCACCCAUGUCUCUAUAAUUUGGUG [salish99_SSNG1_r04_902] (Eterna round: R96, puzzle: Same State NG 1) | – | – | – | 62.4 nM | 177 nM | 132 nM |
| AUUGCUAUCACAGGAUAUCAUGCGAAAAUCGCGUGAGAAGGGUGGACUCUGUCAUUCACGGAGGACAUGAGGAUCACCCAUGUC [SS NG10LRO16] (Eterna round: R96, puzzle: Same State NG 1) | – | – | – | 18.9 nM | 363 nM | 45.8 nM |
| AUAAUACAUGAGGAUCACCCAUGUAAUUUAACUUGUAAGAUCAAGGAUAUCAGCUCGAAUAGAGCUGAGAAGGUGAUCACAUGU [SSNG3/20-A1] (Eterna round: R96, puzzle: Same State NG 3) | – | – | – | 70.7 nM | – | – |

| Sequence | apparent KD of MS2 coat protein [1] | apparent KD of MS2 coat protein [2] | apparent KD of MS2 coat protein [3] | apparent KD of MS2 coat protein [4] | apparent KD of MS2 coat protein (input ligand: FMN 200 uM) | apparent KD of MS2 coat protein (input ligand: none) |
| --- | --- | --- | --- | --- | --- | --- |
| GUAGCAUGCAGGCAGGAUAUUCAUAUUAAAACAUGAGGAUCACCCAUGUAGGCCGAAAGGCCUUGGGAGAAGGGCCACAUGCUAC [Xeonanis - 18] (Eterna round: R96, puzzle: Same State 2) | – | – | – | 429 nM | 36.8 nM | 704 nM |
| GGUCCCUACGCACAGGAUAUUCUUUUGGCAACAUGAGGAUCACCCAUGUGUGCCGAUCAUGGUUAGAAGAAGGGUGGUAGGGACG [Cesovexe] (puzzle: Same State 2) | 12 nM | 11.4 nM | 16.8 nM | – | – | – |
| AACAAUCUAUCUGAGGAUAUCAUGAAUAAAACAUGAGGAUCACCCAUGUGCAGGAAAACUGCAUAUGAGAAGGCAGAUAGAUUGU [Mat - Same State 2 - Mod - D11] (puzzle: Same State 2) | 69.3 nM | 2610 nM | 2140 nM | – | – | – |
| AGAUCAUGACGAGGAUAUGGAACAUGAGGAUCACCCAUGUAUGUUCCAUAACGCGAAUGACGAAUCCAGAAGGCGUCGUGAUCA [Mat - Same State NG 2 - JL mod - D26] (Eterna round: R96, puzzle: Same State NG 2) | – | – | – | 92.1 nM | 18.1 nM | 116 nM |
| GUCCAACAUGAGGAUCACCCAUGUCGGGCGUGCACAGGAUAUCGCGCCGGGAAAGACCAGCGAGAAGGGUGAUCGA [Leriqu] (puzzle: Same State 1) | 139 nM | 51.4 nM | 57.5 nM | – | – | – |
| AGUCCAGCCUGAGCUGGACAAAAGCAUGUACAUGAGGAUCACCCAUGUCAUGUACAAGCUUUUUGCAAAUCUUAAUA [Mat - hsa-mir-208a - Mod of JL - D34] (Eterna round: R96, puzzle: Sensor for hsa-mir-208a) | – | – | – | 14.6 nM | 999 nM | 1180 nM |
| UGGUAACAUGAGGAUCACCCAUGUCAAAUGAAUCGAGGAUAUGGGAAUUAAUAAUAUAAACUAGAAGGCGAAUUUG [Altered State 1-6 - Jieux - Same State 1] (puzzle: Same State 1) | 85.6 nM | 123 nM | 52.7 nM | – | – | – |
| GGCGAACAGGCUAACAUGAGGAUCACCCAUGUGGACUCAUGUUAGGAUAUCGGGAAGGAGGAAACCGAGAAGGGACGGUGAGCC [AK SSNG3-V2-47] (Eterna round: R96, puzzle: Same State NG 3) | – | – | – | 9.25 nM | 18.8 nM | 82.3 nM |
| UGUUGUAUUACAGGAUAUCUAUAAUUUUUAUUUAGAGAAGGGUAUUCACAUGAGGAUCACCCAUGUAUAUACGAGGAAGUUGUG [JMF's solution 10] (Eterna round: R96, puzzle: Same State NG 1) | – | – | – | 31.1 nM | – | – |
| GCCGCACAUGAGGAUCACCCAUGUAAUUACAUGGGAGGAUAUCAGUGCUCGAAAGAGCACUGAGAAGGCCUGAGGC [SS1 - Omei A v1] (Eterna round: R96, puzzle: Same State 1) | – | – | – | 42.4 nM | 887 nM | 74.8 nM |
| CUCAAAACAAGUUGCAGUGUUCGUCUUUAACAUGAGGAUCACCCAUGUAAUAGCCUGGUGGAAGCGCUCGGGCCACC [Qurabila] (puzzle: Sensor for hsa-mir-208a) | 23.4 nM | 15.6 nM | 25.1 nM | – | – | – |
| GGUACUAACACAGGAUAUGCUAUCCUUUGGGUAGCAGAAGGGUGGUACAUGAGGAUCACCCAUGUGGUGCCAGGGCGUGAGCCC [JL SSNG1 1.96] (Eterna round: R96, puzzle: Same State NG 1) | – | – | – | 538 nM | 408 nM | 659 nM |
| CACCAGAGAGCAGGAUAUGGGCCACGGCCUAAGGGCUGUGAACUCACAUGAGGAUCACCCAUGUCCCAGAAGGGCUCCUGGCUA [Getiised] (Eterna round: R96, puzzle: Same State NG 2) | – | – | – | 602 nM | 98.3 nM | 842 nM |
| UCUAGACAUGAGGAUCACCCAUGUCAAUAUGACACAGGAUAUCGGUACUCAUAGAGUACGCGAGAAGGGUGACUUC [Same State 1 - Mod of Vinnie Gere v.4] (puzzle: Same State 1) | 137 nM | 45.5 nM | 52.6 nM | – | – | – |
| UUCACCUUAUUUUACAUGAGGAUCACCCAUGUUUUUUUUACGUAGGAUAUCGAUGCUUGUUUAUUCGAGAAGGACGAUGUAAGU [JR_SSND3_Sub053] (Eterna round: R96, puzzle: Same State NG 3) | – | – | – | 28 nM | – | – |
| UUAAUGAUGAUAGGAUAUACAUGAGGAAUUCUCGUAGAAGGAUCAUGACAUGAGGAUCACCCAUGUAUCGCUCGAUAGAGCGUA [Mat - Same State NG 1 - JL mod - D34] (Eterna round: R96, puzzle: Same State NG 1) | – | – | – | 142 nM | 844 nM | 158 nM |

Reference: the supplement of paper PMC9170038
